# B1: Speckle-type POZ protein (Homo sapiens), O43791 (parent)
# chain: MSRVPSPPPPAEMSSGPVAESWCYTQIKVVKFSYMWTINNFSFCREEMGEVIKSSTFSSGANDKLKWCLRVNPKGLDEESKDYLSLYLLLVSCPKSEVRAKFKFSILNAKGEETKAMESQRAYRFVQGKDWGFKKFIRRDFLLDEANGLLPDDKLTLFCEVSVVQDSVNISGQNTMNMVKVPECRLADELGGLWENSRFTDCCLCVAGQEFQAHKAILAARSPVFSAMFEHEMEESKKNRVEINDVEPEVFKEMMCFIYTGKAPNLDKMADDLLAAADKYALERLKVMCEDALCSNLSVENAAEILILADLHSADQLKTQAVDFINYHASDVLETSGWKSMVVSHPHLVAEAYRSLASAQCPFLGPPRKRLKQS
# partner: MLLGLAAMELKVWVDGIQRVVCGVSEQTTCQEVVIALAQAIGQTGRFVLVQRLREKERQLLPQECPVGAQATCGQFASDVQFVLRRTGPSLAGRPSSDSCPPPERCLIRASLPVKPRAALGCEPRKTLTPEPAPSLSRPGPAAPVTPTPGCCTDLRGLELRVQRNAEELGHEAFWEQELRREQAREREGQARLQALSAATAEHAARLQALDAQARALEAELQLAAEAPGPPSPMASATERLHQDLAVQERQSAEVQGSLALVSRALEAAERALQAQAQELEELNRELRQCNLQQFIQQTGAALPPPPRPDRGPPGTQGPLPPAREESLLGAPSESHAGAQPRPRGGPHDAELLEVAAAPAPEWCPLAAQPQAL
# B2: Speckle-type POZ protein (Homo sapiens), O43791 (parent)
# chain: B1 chain
# partner: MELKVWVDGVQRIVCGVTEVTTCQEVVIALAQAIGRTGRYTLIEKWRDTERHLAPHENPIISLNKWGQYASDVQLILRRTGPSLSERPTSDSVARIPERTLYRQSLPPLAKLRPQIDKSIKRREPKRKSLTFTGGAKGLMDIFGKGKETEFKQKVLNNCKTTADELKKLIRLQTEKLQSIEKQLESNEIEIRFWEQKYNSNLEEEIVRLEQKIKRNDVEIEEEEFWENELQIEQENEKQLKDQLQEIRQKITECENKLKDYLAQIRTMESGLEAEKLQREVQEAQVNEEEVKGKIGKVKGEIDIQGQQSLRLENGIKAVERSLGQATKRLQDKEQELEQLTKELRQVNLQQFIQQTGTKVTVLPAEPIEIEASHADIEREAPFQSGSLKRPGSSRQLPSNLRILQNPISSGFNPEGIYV
# B3: Speckle-type POZ protein (Homo sapiens), O43791 (parent)
# chain: B1 chain
# partner: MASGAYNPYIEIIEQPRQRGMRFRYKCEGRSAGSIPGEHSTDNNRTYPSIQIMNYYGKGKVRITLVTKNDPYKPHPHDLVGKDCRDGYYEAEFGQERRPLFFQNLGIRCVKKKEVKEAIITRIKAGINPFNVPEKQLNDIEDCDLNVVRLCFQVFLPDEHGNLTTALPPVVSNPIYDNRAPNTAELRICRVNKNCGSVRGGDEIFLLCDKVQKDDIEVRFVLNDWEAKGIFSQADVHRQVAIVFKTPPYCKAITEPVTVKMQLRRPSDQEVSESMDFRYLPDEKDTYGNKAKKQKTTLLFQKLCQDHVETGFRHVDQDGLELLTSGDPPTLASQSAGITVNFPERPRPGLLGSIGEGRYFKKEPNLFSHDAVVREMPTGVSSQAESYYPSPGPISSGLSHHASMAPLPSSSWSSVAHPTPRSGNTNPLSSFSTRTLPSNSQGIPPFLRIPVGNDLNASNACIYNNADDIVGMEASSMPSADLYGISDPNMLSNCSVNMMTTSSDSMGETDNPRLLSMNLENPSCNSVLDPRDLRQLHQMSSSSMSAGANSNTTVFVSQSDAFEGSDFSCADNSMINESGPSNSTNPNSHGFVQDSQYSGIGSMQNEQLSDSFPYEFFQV
# B4: Speckle-type POZ protein (Homo sapiens), O43791 (parent)
# chain: B1 chain
# partner: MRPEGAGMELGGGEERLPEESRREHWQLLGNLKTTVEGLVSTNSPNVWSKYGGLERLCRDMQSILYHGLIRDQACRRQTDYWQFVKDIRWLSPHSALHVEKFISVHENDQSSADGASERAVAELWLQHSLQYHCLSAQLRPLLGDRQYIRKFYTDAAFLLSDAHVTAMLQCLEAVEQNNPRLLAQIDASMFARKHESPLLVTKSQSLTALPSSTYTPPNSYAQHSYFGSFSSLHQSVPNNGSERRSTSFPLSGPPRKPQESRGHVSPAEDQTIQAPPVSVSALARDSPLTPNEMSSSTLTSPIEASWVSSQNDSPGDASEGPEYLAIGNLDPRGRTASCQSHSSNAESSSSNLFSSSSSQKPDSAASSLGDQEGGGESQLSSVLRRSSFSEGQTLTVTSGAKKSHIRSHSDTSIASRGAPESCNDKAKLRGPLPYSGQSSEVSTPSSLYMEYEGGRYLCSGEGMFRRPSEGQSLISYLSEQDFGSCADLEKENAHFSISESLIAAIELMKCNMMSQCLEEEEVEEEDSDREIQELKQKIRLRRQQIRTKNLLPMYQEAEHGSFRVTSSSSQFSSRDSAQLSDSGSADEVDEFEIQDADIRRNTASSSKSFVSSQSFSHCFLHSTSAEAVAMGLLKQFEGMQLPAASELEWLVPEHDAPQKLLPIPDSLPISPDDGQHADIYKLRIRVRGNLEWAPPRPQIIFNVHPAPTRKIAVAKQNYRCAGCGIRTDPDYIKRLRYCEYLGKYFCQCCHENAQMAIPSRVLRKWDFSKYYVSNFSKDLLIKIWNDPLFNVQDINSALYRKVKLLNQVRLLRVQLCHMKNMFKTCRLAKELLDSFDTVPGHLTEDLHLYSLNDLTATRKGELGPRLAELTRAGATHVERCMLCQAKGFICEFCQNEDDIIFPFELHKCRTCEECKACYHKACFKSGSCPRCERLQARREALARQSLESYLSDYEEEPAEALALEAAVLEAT
# B5: Speckle-type POZ protein (Homo sapiens), O43791 (parent)
# chain: B1 chain
# partner: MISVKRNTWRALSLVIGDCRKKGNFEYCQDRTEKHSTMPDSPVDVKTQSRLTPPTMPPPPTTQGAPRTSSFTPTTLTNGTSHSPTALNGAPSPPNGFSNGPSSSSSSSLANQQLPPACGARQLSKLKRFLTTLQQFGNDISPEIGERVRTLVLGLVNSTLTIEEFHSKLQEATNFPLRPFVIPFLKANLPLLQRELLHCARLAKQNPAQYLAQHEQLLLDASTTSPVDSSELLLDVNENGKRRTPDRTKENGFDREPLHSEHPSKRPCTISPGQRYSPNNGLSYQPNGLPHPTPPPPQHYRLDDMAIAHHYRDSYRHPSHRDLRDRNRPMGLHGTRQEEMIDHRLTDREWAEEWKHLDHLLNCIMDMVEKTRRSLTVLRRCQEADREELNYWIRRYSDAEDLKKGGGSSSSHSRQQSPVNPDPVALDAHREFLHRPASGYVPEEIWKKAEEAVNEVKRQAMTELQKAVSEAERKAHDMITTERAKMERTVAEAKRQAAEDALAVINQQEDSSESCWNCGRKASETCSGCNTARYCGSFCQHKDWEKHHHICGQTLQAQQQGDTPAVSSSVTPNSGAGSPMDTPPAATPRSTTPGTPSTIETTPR
# Variants of: B1
# Settings: with rasf7_human RASSF7, Q02833
row,Variant,effect of a mutation on the interaction
1,F102C,with no effect

# Variants of: B1
# Settings: with rasf7_human RASSF7, Q02833
# Remark: another data set of the same source
row,Variant,effect of a mutation on the interaction
1,F133L,with no effect

# Variants of: B1
# Settings: with rasf7_human RASSF7, Q02833
# Remark: another data set of the same source
row,Variant,effect of a mutation on the interaction
1,Y87C,with no effect

# Variants of: B1
# Settings: with rasf7_human RASSF7, Q02833
# Remark: another data set of the same source
row,Variant,effect of a mutation on the interaction
1,F133V,with no effect

# Variants of: B2
# Settings: with rasf8_human RASSF8, Q8NHQ8
row,Variant,effect of a mutation on the interaction
1,F102C,with no effect

# Variants of: B2
# Settings: with rasf8_human RASSF8, Q8NHQ8
# Remark: another data set of the same source
row,Variant,effect of a mutation on the interaction
1,F133L,with no effect

# Variants of: B2
# Settings: with rasf8_human RASSF8, Q8NHQ8
# Remark: another data set of the same source
row,Variant,effect of a mutation on the interaction
1,Y87C,with no effect

# Variants of: B2
# Settings: with rasf8_human RASSF8, Q8NHQ8
# Remark: another data set of the same source
row,Variant,effect of a mutation on the interaction
1,F133V,with no effect

# Variants of: B3
# Settings: with rel_human REL
row,Variant,effect of a mutation on the interaction
1,F102C,with no effect

# Variants of: B3
# Settings: with rel_human REL
# Remark: another data set of the same source
row,Variant,effect of a mutation on the interaction
1,Y87C,with no effect

# Variants of: B3
# Settings: with rel_human REL
# Remark: another data set of the same source
row,Variant,effect of a mutation on the interaction
1,F133V,with no effect

# Variants of: B3
# Settings: with rel_human REL
# Remark: another data set of the same source
row,Variant,effect of a mutation on the interaction
1,F133L,causing an interaction

# Variants of: B3
# Settings: with rel_human REL
# Remark: another data set of the same source
row,Variant,effect of a mutation on the interaction
1,F133L,increasing interaction strength

# Variants of: B4
# Settings: with rubic_human RUBCN
row,Variant,effect of a mutation on the interaction
1,F102C,with no effect

# Variants of: B4
# Settings: with rubic_human RUBCN
# Remark: another data set of the same source
row,Variant,effect of a mutation on the interaction
1,F133L,with no effect

# Variants of: B4
# Settings: with rubic_human RUBCN
# Remark: another data set of the same source
row,Variant,effect of a mutation on the interaction
1,Y87C,with no effect

# Variants of: B4
# Settings: with rubic_human RUBCN
# Remark: another data set of the same source
row,Variant,effect of a mutation on the interaction
1,F133V,with no effect

# Variants of: B5
# Settings: with mtg8_human RUNX1T1, Q06455
row,Variant,effect of a mutation on the interaction
1,F102C,with no effect

# Variants of: B5
# Settings: with mtg8_human RUNX1T1, Q06455
# Remark: another data set of the same source
row,Variant,effect of a mutation on the interaction
1,F102C,disrupting interaction strength
2,F133L,disrupting interaction strength
3,Y87C,disrupting interaction strength

# Variants of: B5
# Settings: with mtg8_human RUNX1T1, Q06455
# Remark: another data set of the same source
row,Variant,effect of a mutation on the interaction
1,F133L,with no effect

# Variants of: B5
# Settings: with mtg8_human RUNX1T1, Q06455
# Remark: another data set of the same source
row,Variant,effect of a mutation on the interaction
1,Y87C,with no effect

# Reference: IntAct's records for PubMed 35512704
